Reference: patent US20120022129

Molecular target: flag-tagged WT HDAC2 (1-488)
Sequence (chain, as listed by the source): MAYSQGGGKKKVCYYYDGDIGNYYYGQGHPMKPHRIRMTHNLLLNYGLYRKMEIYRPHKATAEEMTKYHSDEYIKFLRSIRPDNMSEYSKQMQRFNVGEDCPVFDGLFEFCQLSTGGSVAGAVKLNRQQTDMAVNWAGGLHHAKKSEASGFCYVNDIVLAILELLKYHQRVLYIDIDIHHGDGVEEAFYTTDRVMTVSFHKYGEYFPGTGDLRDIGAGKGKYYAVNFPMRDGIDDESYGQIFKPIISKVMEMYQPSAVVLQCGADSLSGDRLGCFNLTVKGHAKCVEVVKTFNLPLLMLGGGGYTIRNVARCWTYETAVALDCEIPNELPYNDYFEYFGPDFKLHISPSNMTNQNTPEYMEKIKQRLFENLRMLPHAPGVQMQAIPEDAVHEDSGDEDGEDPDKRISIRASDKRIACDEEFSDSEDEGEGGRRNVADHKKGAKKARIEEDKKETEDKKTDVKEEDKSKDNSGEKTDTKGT

B1: protein kinase CK2 catalytic subunit CK2α (protein)
chain: MSGPVPSRARVYTDVNTHRPREYWDYESHVVEWGNQDDYQLVRKLGRGKYSEVFEAINITNNEKVVVKILKPVKKKKIKREIKILENLRGGPNIITLADIVKDPVSRTPALVFEHVNNTDFKQLYQTLTDYDIRFYMYEILKALDYCHSMGIMHRDVKPHNVMIDHEHRKLRLIDWGLAEFYHPGQEYNVRVASRYFKGPELLVDYQMYDYSLDMWSLGCMLASMIFRKEPFFHGHDNYDQLVRIAKVLGTEDLYDYIDKYNIELDPRFNDILGRHSRKRWERFVHSENQHLVSPEALDFLDKLLRYDHQSRLTAREAMEHPYFYTVVKDQARMGSSSMPGGSTPVSSANMMSGISSVPTPSPLGPLAGSPVIAAANPLGMPVPAAAGAQQ
- HDAC2 serine phosphorylation (phospho-serine western blot of immunoprecipitated flag-tagged HDAC2): HDAC2 phosphorylation seemed to correlate with the level of CK2α binding
